Measured values: article PMC6624210 (Nature Communications, 2019)

B1: mouse monoclonal antibody 7D10 (antibody, V domains shown)
VH: EVQLVESGAEVVKPGASVKMSCKASGYPFTSYNIHWIKQTPGQGLEWIGAIYPGNGDTSYTQKFKVKATLTSDKSSSTAYMQLSSLTSEDSAVYFCARYGNYPSYAMDYWGQGTSVTVSS
VL: DIVMTQSPASLTVSLGQRATISCRASKSVSASGYNYLHWYQQRPGQPPKLLIYLAFNLESGVPARFNGSGSGTDFTLNIHPVEEEDAATYYCQHSRDLPFTFGSGTKLEIK
B2: 7D10 scFv (VL, triple GGGS linker, VH) (scFv, V domains shown)
VH: B1 VH
VL: B1 VL

How the values were obtained:
[1] = molecular target: recombinant receptor-binding domain of MERS-CoV S glycoprotein (residues 367-606) (MERS-CoV, EMC/2012 (strain used …, UniProt K0BRG7)); assay: ELISA; settings: both partners purified
[2] = molecular target: MERS-CoV spike glycoprotein S1 N-terminal domain (residues 18-353), wild type (MERS-CoV, EMC strain (NTD sequence …, UniProt K9N5Q8)); assay: cell-based or functional assay
Sequence of MERS-CoV spike glycoprotein S1 N-terminal domain (residues 18-353), wild type (MERS-CoV, EMC strain (K9N5Q8 18-353): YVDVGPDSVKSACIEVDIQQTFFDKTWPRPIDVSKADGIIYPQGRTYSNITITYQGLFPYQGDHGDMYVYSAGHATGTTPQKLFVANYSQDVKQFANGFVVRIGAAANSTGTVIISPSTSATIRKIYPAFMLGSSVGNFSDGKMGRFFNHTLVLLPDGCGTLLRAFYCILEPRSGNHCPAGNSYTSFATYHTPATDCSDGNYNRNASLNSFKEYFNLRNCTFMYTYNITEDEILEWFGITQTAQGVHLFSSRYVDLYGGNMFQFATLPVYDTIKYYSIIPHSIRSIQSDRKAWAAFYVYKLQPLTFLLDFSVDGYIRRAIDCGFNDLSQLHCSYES

| Binder | binding result [1] | IC50 of neutralisation of pseudotyped MERS-CoV on Huh7 cells (luciferase) [2] [µg/mL] | IC50 of inhibition of cell entry of pseudotyped MERS-CoV (Huh7 cells) [2] [µg/mL] |
| --- | --- | --- | --- |
| B1 | no binding (tested: 4 μg mL^−1) | ~0.18 | – |
| B2 | – | – | 0.28 |
